Molecular target: recombinant CD47 protein (Homo sapiens, UniProt Q08722)
Assay: SPR on CM5 chip conjugated with CD47
Type: binding
Conditions: CD47 250 RU
Protocol: Specifically, the recombinant CD47 protein was conjugated to the surface of the CM5 chip by a target SPR reaction of 250 RU through an EDC-NHS reaction to be used, and for HBS-P, the sensogram obtained through a process of association for 3 minutes and dissociation for 10 minutes at a flow rate of 30 μL/minutes was analyzed with the BiaEvaluation software using a 1:1 binding model and global fitting.

Chain of recombinant CD47 protein (Q08722 19-323): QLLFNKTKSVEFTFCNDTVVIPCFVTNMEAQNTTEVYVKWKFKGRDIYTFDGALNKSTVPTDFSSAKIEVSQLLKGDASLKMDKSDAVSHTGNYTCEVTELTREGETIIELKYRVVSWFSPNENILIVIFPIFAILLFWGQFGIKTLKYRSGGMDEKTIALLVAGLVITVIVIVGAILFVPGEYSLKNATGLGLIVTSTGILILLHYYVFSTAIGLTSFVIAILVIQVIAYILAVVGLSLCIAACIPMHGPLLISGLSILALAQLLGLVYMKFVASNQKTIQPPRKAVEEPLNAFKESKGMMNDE

Sirpα: pure Sirpα (SEQ ID NO: 25), water-soluble domain of the original CD47 ligand
Kd: 290 nM

B1: SV4-DSPE (conjugate)
chain: MEEELQIIQPDLSVSVAAGESAILHCTITSLFPVGPIQWFRGAGPARVLIYNQRQGPFPRVTTVSETTKRENMDFSISISNITPADAGTYYCIKFRKGSPDTEFLSGAGTELSVRAKPS
kd: 0.000256 s⁻¹
